Laboratory results reported in US20150368668A1 (RUTGERS THE STATE UNIVERSITY OF NEW JERSEY, published 2015).

T1: Human CD81-LEL (residues 112-202), protein-A tag cleaved by PreScission Protease (human, UniProt P60033 112-202)
T1 construct: range 112-202
T1 sequence: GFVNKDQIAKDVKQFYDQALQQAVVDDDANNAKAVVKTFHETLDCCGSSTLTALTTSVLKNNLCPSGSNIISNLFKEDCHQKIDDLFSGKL


Columns and labels:
[1] = target: human CD81, cellular receptor on the cells infected with HCVcc (human) (UniProt P60033); assay: cell-based or functional assay
[2] = target: T1, Human CD81-LEL (residues 112-202), …; assay: ELISA, CD81-LEL coated, detection with 2A12 and anti-mouse-HRP
[3] = target: T1, Human CD81-LEL (residues 112-202), …; assay: SAXS envelope of the complex

Chain of human CD81, cellular receptor on the cells infected with HCVcc (human) (P60033 whole entry, the tested form may be a part): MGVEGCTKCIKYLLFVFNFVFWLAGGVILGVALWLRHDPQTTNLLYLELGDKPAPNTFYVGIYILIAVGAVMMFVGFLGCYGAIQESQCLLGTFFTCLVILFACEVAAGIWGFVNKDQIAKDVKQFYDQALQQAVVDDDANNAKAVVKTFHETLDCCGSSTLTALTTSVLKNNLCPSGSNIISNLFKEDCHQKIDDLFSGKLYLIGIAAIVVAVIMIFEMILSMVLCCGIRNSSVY

Molecule | 50% blocking efficiency, HCVcc focus forming units [1] | further results
purified eE2 (J6 genotype 2a E2 ectodomain aa 384-664, released from the Fc tag by thrombin) (from UniProt P26660 385-664) | 25 to 150 µg/mL | –
purified eE2-C656S (J6 E2 ectodomain aa 384-664 with C656S, released from the Fc tag by thrombin) (from UniProt P26660 385-664) | 25 to 150 µg/mL | –
full-length E2 ectodomain eE2 (residues 384-656, genotype J6), produced with a C-terminal protein-A tag and released by PreScission Protease (other, N-linked glycans from GnTI- HEK293T cells; whether deglycosylated in the ELISAs is not stated, Monomeric; also called eE2 (384-656)) RTHTVGGSAAQTTGRLTSLFDMGPRQKIQLVNTNGSWHINRTALNCNDSLHTGFIASLFYTHSFNSSGCPERMSACRSIEAFRVGWGALQYEDNVTNPEDMRPYCWHYPPRQCGVVSAKTVCGPVYCFTPSPVVVGTTDRLGAPTYTWGENETDVFLLNSTRPPLGSWFGCTWMNSSGYTKTCGAPPCRTRADFNASTDLLCPTDCFRKHPDTTYLKCGSGPWLTPRCLIDYPYRLWHYPCTVNYTIFKIRMYVGGVEHRLTAACNFTRGDRC | – | binding result [2]: binds
eE2(ΔHVR1) (residues 413-656, genotype J6) (other, glycosylated (SAXS sample), also called eE2(DHVR1); eE2 (DHVR1)) LVNTNGSWHINRTALNCNDSLHTGFIASLFYTHSFNSSGCPERMSACRSIEAFRVGWGALQYEDNVTNPEDMRPYCWHYPPRQCGVVSAKTVCGPVYCFTPSPVVVGTTDRLGAPTYTWGENETDVFLLNSTRPPLGSWFGCTWMNSSGYTKTCGAPPCRTRADFNASTDLLCPTDCFRKHPDTTYLKCGSGPWLTPRCLIDYPYRLWHYPCTVNYTIFKIRMYVGGVEHRLTAACNFTRGDRC | – | binding result [3]: binds
